From US20130004527A1

Biological target: IgE in a panel of sera from 22 patients allergic to ragweed (human)
Assay: competition ELISA; tested as AllerR mix with 22 sera

Row | Binder | highest concentration without competition
1 | AllerR2 (peptide) peptide: DVANPKEGTLRFGAAQNRPLWIIFERDMVIRLDKEMVVNSDKTIDGRGAKVE | > 10 µM
2 | AllerR4.3 (peptide) peptide: MHDVKVNPGGLIKSNDGPAAPRAGSDGDAISISGSSQIWIDHCSLSKSVDGLVDAKLGTTR | > 10 µM
3 | TIDGRGAKVEIINAGFTLNGVKNVIIHNINMHDVKVNPGGLIK [AllerR3] | > 10 µM

Results, then the binder that gave them:

Row | highest concentration without competition | Binder
4 | > 10 µM | AllerR6 (peptide) peptide: VLGRHGEAAAESMKWNWRTNKDVLENGAIFVASGVDPVLTPEQSAGMIPAEPGESALSLTSSAGVLSCQPGA
5 | > 10 µM | VDAKLGTTRLTVSNSLFTQHQFVLLFGAGDENIEDRGMLATVAFNTFTDN [AllerR4.2]
6 | > 10 µM | AllerR1 (peptide) peptide: TSGAYNIIDGCWRGKADWAENRKALADCAQGFGKGTVGGKDGDIYTVTSELDDDVANPK
7 | > 10 µM | AllerR5 (peptide) peptide: TVAFNTFTDNVDQRMPRCRHGFFQVVNNNYDKWGSYAIGGSASPTILSQGNRFCAPDERSKKNVLGRHGE
